Residue numbers refer to the chain shown, from its start.
Key:
[1] = biological target: T1, AcFur SII E106A;H123A (Acidithiobacillus caldus MTH-04) (UniProt A0A060A2G1); assay: EMSA; conditions: EMSA: 0.4 nM DNA, 0/2/4/8 nM protein, 10 mM Tris-HCl pH 8.0, 100 mM NaCl, 1 mM MnCl2, room temperature, 30 min; 5% native PAGE in 0.5x TBE, EB stain
T1 sequence: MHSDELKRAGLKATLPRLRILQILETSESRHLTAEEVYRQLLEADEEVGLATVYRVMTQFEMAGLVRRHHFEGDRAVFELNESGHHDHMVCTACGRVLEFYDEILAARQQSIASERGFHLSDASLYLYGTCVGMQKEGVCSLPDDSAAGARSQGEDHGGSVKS

[2] = biological target: T2, AcFur SI H31A;H88A (Acidithiobacillus caldus MTH-04) (UniProt A0A060A2G1); assay: EMSA; conditions: EMSA: 0.4 nM DNA, 0/2/4/8 nM protein, 10 mM Tris-HCl pH 8.0, 100 mM NaCl, 1 mM MnCl2, room temperature, 30 min; 5% native PAGE in 0.5x TBE, EB stain
T2 sequence: T1 sequence with H31A, H88A, A106E, A123H

Sequence	binding [1]	binding [2]
TTCCACCTGCTCACCTGCGCGGGCCGAGCTCAGGCGGTGGGGGGAAAGGACTTGGGTCATGACGCTCACACTCCCAACGAGTTCGTGGGGACACTATATCATAATGGTAATCATTTGCAATATCAGCCCAAGGGAGGGCCGTCCCGGCGGACGCAGCCGCCGACGCTCAGTCCAGGTCGCCGTGCCTGGGTGTAAAACGC (double strand) [feoABC operator (feoA promoter)]	binds more weakly	no binding
GCGTAGGACGTCCTTGATAACTGCAACTAAGTTGCATATATTCCGCACGACCACTCCGCGCGTCCCTGGGGAGCTTGACCGGTAAGTCTATTTATTGAATGATAATGATTAGCATTTATATTATTTGGAGAGATTGTCCATGCGTCGTATACCCCTCTGTGCGCTGCTGAGCACCATGCTTGCTTCCAGC (double strand) [feoP promoter]	binds more weakly	no binding
